In the experiment the target is purified SARS-CoV-2 N protein produced in pupae (SARS-CoV-2, UniProt P0DTC9 1-419). The experiment is described as follows: ELISA. On the technique in general: In an ELISA, binding on a coated surface is turned into a signal by an enzyme label.

The record followed here is doi:10.1101/2020.12.19.423584 (bioRxiv, 2020).

B1: Niemann-Pick type C1 (NPC1) receptor, endogenous human (natural protein)
chain: QSCVWYGECGIAYGDKRYNCEYSGPPKPLPKDGYDLVQELCPGFFFGNVSLCCDVRQLQTLKDNLQLPLQFLSRCPSCFYNLLNLFCELTCSPRQSQFLNVTATEDYVDPVTNQTKTNVKELQYYVGQSFANAMYNACRDVEAPSSNDKALGLLCGKDADACNATNWIEYMFNKDNGQAPFTITPVFSDFPVHGMEPMNNATKGCDESVDEVTAPCSCQDCSIVCGPKPQPPPPPAPWTILGLDAMYVIMWITYMAFLLVFFGAFFAVWCYRKRYFVSEYTPIDSNIAFSVNASDKGEASCCDPVSAAFEGCLRRLFTRWGSFCVRNPGCVIFFSLVFITACSSGLVFVRVTTNPVDLWSAPSSQARLEKEYFDQHFGPFFRTEQLIIRAPLTDKHIYQPYPSGADVPFGPPLDIQILHQVLDLQIAIENITASYDNETVTLQDICLAPLSPYNTNCTILSVLNYFQNSHSVLDHKKGDDFFVYADYHTHFLYCVRAPASLNDTSLLHDPCLGTFGGPVFPWLVLGGYDDQNYNNATALVITFPVNNYYNDTEKLQRAQAWEKEFINFVKNYKNPNLTISFTAERSIEDELNRESDSDVFTVVISYAIMFLYISLALGHMKSCRRLLVDSKVSLGIAGILIVLSSVACSLGVFSYIGLPLTLIVIEVIPFLVLAVGVDNIFILVQAYQRDERLQGETLDQQLGRVLGEVAPSMFLSSFSETVAFFLGALSVMPAVHTFSLFAGLAVFIDFLLQITCFVSLLGLDIKRQEKNRLDIFCCVRGAEDGTSVQASESCLFRFFKNSYSPLLLKDWMRPIVIAIFVGVLSFSIAVLNKVDIGLDQSLSMPDDSYMVDYFKSISQYLHAGPPVYFVLEEGHDYTSSKGQNMVCGGMGCNNDSLVQQIFNAAQLDNYTRIGFAPSSWIDDYFDWVKPQSSCCRVDNITDQFCNASVVDPACVRCRPLTPEGKQRPQGGDFMRFLPMFLSDNPNPKCGKGGHAAYSSAVNILLGHGTRVGATYFMTYHTVLQTSADFIDALKKARLIASNVTETMGINGSAYRVFPYSVFYVFYEQYLTIIDDTIFNLGVSLGAIFLVTMVLLGCELWSAVIMCATIAMVLVNMFGVMWLWGISLNAVSLVNLVMSCGISVEFCSHITRAFTVSMKGSRVERAEEALAHMGSSVFSGITLTKFGGIVVLAFAKSQIFQIFYFRMYLAMVLLGATHGLIFLPVLLSYIGPSVNKAKSCATEERYKGTERERLLNF
For the molecule B1, the binding result was “binds”.
